Measured values from patent US20200109169A1 (BGI SHENZHEN, published 2020).

target: T1, HLA-A0201 on the surface of T2 cells (human); experiment: T2 cell peptide loading, flow cytometry with anti-HLA-A*02:01 FITC antibody, peptide 100 uM
T1 construct: MHC class I molecule on T2 cells; surface HLA-A*02:01 was read with an anti-HLA-A*02:01 FITC monoclonal antibody after overnight loading with peptide
Description: After centrifugation at 200 g for 5 minutes for cell collection, the collected cells were washed with phosphate buffer saline (PBS) buffer twice, before incubated with anti-HLA-A*02:01 FITC monoclonal antibody at 4° C. for 30 minutes. The mean fluorescence intensity of cells was then detected and analyzed by the flow cytometry (BD FACSJazz™)) and its software.

| Binder | FI (fluorescence index) | Mean fluorescence intensity |
| --- | --- | --- |
| PLAFLIFNI (Made by solid phase synthesis) [wild-type polypeptide PLAFLIFNI (SEQ ID NO: 7)] | 1.63 | 650 |
| TLAFLIFNL (Made by solid phase synthesis) [mutant polypeptide's variant TLAFLIFNL (SEQ ID NO: 4)] | 1.49 | 615 |
| TLAFLIFNI (Made by solid phase synthesis, purity >90% by HPLC) [mutant polypeptide TLAFLIFNI (SEQ ID NO: 1)] | 1.6 | 643 |

Further lines, results first:

| FI (fluorescence index) | Mean fluorescence intensity | Binder |
| --- | --- | --- |
| 1.51 | 620 | TLAFLIFNV (Made by solid phase synthesis) [mutant polypeptide's variant TLAFLIFNV (SEQ ID NO: 3)] |
| 1.74 | 677 | TMAFLIFNV (Made by solid phase synthesis) [mutant polypeptide's variant TMAFLIFNV (SEQ ID NO: 6)] |
| 1.67 | 660 | TMAFLIFNI (Made by solid phase synthesis) [mutant polypeptide's variant TMAFLIFNI (SEQ ID NO: 2)] |
| 1.79 | 690 | TMAFLIFNL (Made by solid phase synthesis) [mutant polypeptide's variant TMAFLIFNL (SEQ ID NO: 5)] |
